The text below walks through data of the supplement of paper PMC5998384.

Data set [1] deals with HeLa Kyoto. The experiment in a line: solubility in G1/S (NP-40 vs SDS abundance) (log2 ratio); higher = more soluble. The following applies: cell cycle stage: G1/S.
Data set [2] relates to HeLa Kyoto. The experiment in a line: solubility change mitosis vs G1/S (difference of NP-40 vs SDS log2 ratios) (log2 ratio difference); higher = more soluble in mitosis.
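Wherever solubility change mitosis vs G1/S (difference of NP-40 vs SDS log2 ratios) is given: synchronized HeLa Kyoto cells (double thymidine block for G1/S, nocodazole release for mitosis), protein amounts in NP-40 versus SDS lysates quantified by mass spectrometry, three biological replicates.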
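Wherever solubility in G1/S (NP-40 vs SDS abundance) is given: HeLa Kyoto cells arrested at G1/S by double thymidine block, proteins quantified by TMT10plex mass spectrometry in mild NP-40 versus SDS extracts, three biological replicates.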

As to “MSNNLRRVFLKPAEENSGNASRCVSGCMYQVVQTIGSDGKNLLQLLPIPKSSGNLIPLVQSSVMSDALKGNTGKPVQVTFQTQISSSSTSASVQLPIFQPASSSNYFLTRTVDTSEKGRVTSVGTGNFSSSVSKVQSHGVKIDGLTMQTFAVPPSTQKDSSFIVVNTQSLPVTVKSPVLPSGHHLQIPAHAEVKSVPASSLPPSVQQKILATATTSTSGMVEASQMPTVIYVSPVNTVKNVVTKNFQNIYPKPVTEIAKPVILNTTQIPKNVATETQLKGGQHSQAAPVKWIFQDNLQPFTPSLVPVKSSNNVASKILKTFVDRKNLGDNTINMPPLSTIDPSGTRSKNMPIKDNALVMFNGKVYLLAKKGTDVLPSQIDQQNSVSPDTPVRKDTLQTVSSSPVTEISREVVNIVLAKSKSSQMETKSLSNTQLASMANLRAEKNKVEKPSPSTTNPHMNQSSNYLKQSKTLFTNPIFPVGFSTGHNAPRKVTAVIYARKGSVLQSIEKISSSVDATTVTSQQCVFRDQEPKIHNEMASTSDKGAQGRNDKKDSQGRSNKALHLKSDAEFKKIFGLTKDLRVCLTRIPDHLTSGEGFDSFSSLVKSGTYKETEFMVKEGERKQQNFDKKRKAKTNKKMDHIKKRKTENAYNAIINGEANVTGSQLLSSILPTSDVSQHNILTSHSKTRQEKRTEMEYYTHEKQEKGTLNSNAAYEQSHFFNKNYTEDIFPVTPPELEETIRDEKIRRLKQVLREKEAALEEMRKKMHQK [LRIF1]”, the “solubility in G1/S (log2)” value in data set [1] is -0.92. Besides, the “solubility change mitosis (log2)” value in data set [2] is 0.89.

Turning to “MSRLEAKKPSLCKSEPLTTERVRTTLSVLKRIVTSCYGPSGRLKQLHNGFGGYVCTTSQSSALLSHLLVTHPILKILTASIQNHVSSFSDCGLFTAILCCNLIENVQRLGLTPTTVIRLNKHLLSLCISYLKSETCGCRIPVDFSSTQILLCLVRSILTSKPACMLTRKETEHVSALILRAFLLTIPENAEGHIILGKSLIVPLKGQRVIDSTVLPGILIEMSEVQLMRLLPIKKSTALKVALFCTTLSGDTSDTGEGTVVVSYGVSLENAVLDQLLNLGRQLISDHVDLVLCQKVIHPSLKQFLNMHRIIAIDRIGVTLMEPLTKMTGTQPIGSLGSICPNSYGSVKDVCTAKFGSKHFFHLIPNEATICSLLLCNRNDTAWDELKLTCQTALHVLQLTLKEPWALLGGGCTETHLAAYIRHKTHNDPESILKDDECTQTELQLIAEAFCSALESVVGSLEHDGGEILTDMKYGHLWSVQADSPCVANWPDLLSQCGCGLYNSQEELNWSFLRSTRRPFVPQSCLPHEAVGSASNLTLDCLTAKLSGLQVAVETANLILDLSYVIEDKN [MKKS]”, the “solubility in G1/S (log2)” value in data set [1] was -0.925. Moreover, in data set [2], the “solubility change mitosis (log2)” value stood at 0.46.

With “MSRSGAAAEKADSRQRPQMKVNEYKENQNIAYVSLRPAQTTVLIKTAKVYLAPFSLSNYQLDQLMCPKSLSEKNSNNEVACKKTKIKKTCRRIIPPKMKNTSSKAESTLQNSSSAVHTESNKLQPKRTADAMNLSVDVESSQDGDSDEDTTPSLDFSGLSPYERKRLKNISENADFFASLQLSESAARLREMIEKRQPPKSKRKKPKRENGIGCRRSMRLLKVDPSGVSLPAAPTPPTLVADETPLLPPGPLEMTSENQEDNNERFKGFLHTWAGMSKPSSKNTEKGLSSIKSYKANLNGMVISEDTVYKVTTGPIFSMALHPSETRTLVAVGAKFGQVGLCDLTQQPKEDGVYVFHPHSQPVSCLYFSPANPAHILSLSYDGTLRCGDFSRAIFEEVYRNERSSFSSFDFLAEDASTLIVGHWDGNMSLVDRRTPGTSYEKLTSSSMGKIRTVHVHPVHRQYFITAGLRDTHIYDARRLNSRRSQPLISLTEHTKSIASAYFSPLTGNRVVTTCADCNLRIFDSSCISSKIPLLTTIRHNTFTGRWLTRFQAMWDPKQEDCVIVGSMAHPRRVEIFHETGKRVHSFGGEYLVSVCSINAMHPTRYILAGGNSSGKIHVFMNEKSC [WDR76]”, the “solubility in G1/S (log2)” value in data set [1] was -1.61. The “solubility change mitosis (log2)” value in data set [2] amounted to 1.15.

Regarding “MSSKMVISEPGLNWDISPKNGLKTFFSRENYKDHSMAPSLKELRVLSNRRIGENLNASASSVENEPAVSSATQAKEKVKTTIGMVLLPKPRVPYPRFSRFSQREQRSYVDLLVKYAKIPANSKAVGINKNDYLQYLDMKKHVNEEVTEFLKFLQNSAKKCAQDYNMLSDDARLFTEKILRACIEQVKKYSEFYTLHEVTSLMGFFPFRVEMGLKLEKTLLALGSVKYVKTVFPSMPIKLQLSKDDIATIETSEQTAEAMHYDISKDPNAEKLVSRYHPQIALTSQSLFTLLNNHGPTYKEQWEIPVCIQVIPVAGSKPVKVIYINSPLPQKKMTMRERNQIFHEVPLKFMMSKNTSVPVSAVFMDKPEEFISEMDMSCEVNECRKIESLENLYLDFDDDVTELETFGVTTTKVSKSPSPASTSTVPNMTDAPTAPKAGTTTVAPSAPDISANSRSLSQILMEQLQKEKQLVTGMDGGPEECKNKDDQGFESCEKVSNSDKPLIQDSDLKTSDALQLENSQEIETSNKNDMTIDILHADGERPNVLENLDNSKEKTVGSEAAKTEDTVLCSSDTDEECLIIDTECKNNSDGKTAVVGSNLSSRPASPNSSSGQASVGNQTNTACSPEESCVLKKPIKRVYKKFDPVGEILKMQDELLKPISRKVPELPLMNLENSKQPSVSEQLSGPSDSSSWPKSGWPSAFQKPKGRLPYELQDYVEDTSEYLAPQEGNFVYKLFSLQDLLLLVRCSVQRIETRPRSKKRKKIRRQFPVYVLPKVEYQACYGVEALTESELCRLWTESLLHSNSSFYVGHIDAFTSKLFLLEEITSEELKEKLSALKISNLFNILQHILKKLSSLQEGSYLLSHAAEDSSLLIYKASDGKVTRTAYNLYKTHCGLPGVPSSLSVPWVPLDPSLLLPYHIHHGRIPCTFPPKSLDTTTQQKIGGTRMPTRSHRNPVSMETKSSCLPAQQVETEGVAPHKRKIT [ICE2]”, the “solubility in G1/S (log2)” value in data set [1] was -0.234. In data set [2], the “solubility change mitosis (log2)” value came out at 0.281.

In the case of “MSSLPRRAKVQVQDVVLKDEFSSFSELSSASEEDDKEDSAWEPQKKVPRSRKQPPPKESKPKRMPRVKKNAPQISDGSEVVVVKEELNSSVAIADTALEDRKNKLDTVQTLKTAKTKQKCAAQPHTVRRTKKLKVEEETSKASNLEGESNSSETPSTSTVWGGTCKKEENDDDFTFGQSALKKIKTETYPQGQPVKFPANANSTKEEVEMNWDMVQVLSERTNIEPWVCANIIRLFNDDNTIPFIIRYRKELINNLDADSLREVQQTLEELRAVAKKVHSTIQKIKKEGKMSECLLKAMLNCKTFEELEHVSAPYKTGSKGTKAQRARQLGLEGAARALLEKPGELSLLSYIRPDVKGLSTLQDIEIGVQHILADMIAKDKDTLDFIRNLCQKRHVCIQSSLAKVSSKKVNEKDVDKFLLYQHFSCNIRNIHHHQILAINRGENLKVLTVKVNISDGVKDEFCRWCIQNRWRPRSFARPELMKILYNSLNDSFKRLIYPLLCREFRAKLTSDAEKESVMMFGRNLRQLLLTSPVPGRTLMGVDPGYKHGCKLAIISPTSQILHTDVVYLHCGQGFREAEKIKTLLLNFNCSTVVIGNGTACRETEAYFADLIMKNYFAPLDVVYCIVSEAGASIYSVSPEANKEMPGLDPNLRSAVSIARRVQDPLAELVKIEPKHIGVGMYQHDVSQTLLKATLDSVVEECVSFVGVDINICSEVLLRHIAGLNANRAKNIIEWREKNGPFINREQLKKVKGLGPKSFQQCAGFIRINQDYIRTFCSQQTETSGQIQGVAVTSSADVEVTNEKQGKKKSKTAVNVLLKPNPLDQTCIHPESYDIAMRFLSSIGGTLYEVGKPEMQQKINSFLEKEGMEKIAERLQTTVHTLQVIIDGLSQPESFDFRTDFDKPDFKRSIVCLEDLQIGTVLTGKVENATLFGIFVDIGVGKSGLIPIRNVTEAKLSKTKKRRSLGLGPGERVEVQVLNIDIPRSRITLDLIRVL [SRBD1]”, the “solubility in G1/S (log2)” value in data set [1] was -0.649. Further, the “solubility change mitosis (log2)” value in data set [2] was 0.249.
